Assay results reported in patent EP1950300A2 (Genentech, Inc., dated 2008).

T1: VEGF(8-109) (UniProt P15692 214-315)
T1 construct: range 8-109; Covalently coupled to the BIACORE chip
T1 sequence (looked up): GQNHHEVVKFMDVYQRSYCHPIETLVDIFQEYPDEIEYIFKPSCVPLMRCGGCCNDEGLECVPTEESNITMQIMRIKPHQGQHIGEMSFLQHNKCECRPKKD


Assays:
VEGF(8-109) [1] = molecular target: T1, VEGF(8-109); experiment: SPR (BIACORE-2000), VEGF(8-109) coupled to the chip, Fab injected, 25 C
VEGF(8-109) [2] = molecular target: T1, VEGF(8-109); experiment: SPR (BIACORE-2000), Kd calculated as koff/kon
VEGF(8-109) [3] = molecular target: T1, VEGF(8-109); experiment: SPR (BIACORE-2000), ratio against Y0192

koff (VEGF(8-109) [1])	kon (VEGF(8-109) [1])	Kd (VEGF(8-109) [2])	Kd(wt)/Kd(mut) (VEGF(8-109) [3])	Binder
			6 fold	Y0239-9 (Fab, V domains shown, Clone from library YC-95 on pY0192; Expressed as Fab; The limits of the flanking pieces are my reading) VH: EVQLVESGGGLVQPGGSLRLSCAASGYTFTNYGMNWVRQAPGKGLEWVGWINTYTGEPTYAADFKRRFTFSLDTSKSTAYLQMNSLRAEDTAVYYCAKYPHYYLGESSHWYFDVWGQGTL VL: DIQLTQSPSSLSASVGDRVTITCRANEQLSNYLNWYQQKPGKAPKVLIYFTSSLHSGVPSRFSGSGSGTDFTLTISSLQPEDFATYYCQQYSTVPWTFGQGTKVEIKR
0.000128 s⁻¹	46000 M⁻¹ s⁻¹	3 nM	1 fold	Y0241-7 (Fab, V domains shown, Clone from library YC-86 built on pY0192, expressed as Fab; This is not written as a substitution) VH: EVQLVESGGGLVQPGGSLRLSCAASGYDWTNYGMNWVRQAPGKGLEWVGWINTYTGEPTYAADFKRRFTFSLDTSKSTAYLQMNSLRAEDTAVYYCAKYPHYYGSSHWYFDVWGQGTL VL: DIQLTQSPSSLSASVGDRVTITCRANEQLSNYLNWYQQKPGKAPKVLIYFTSSLHSGVPSRFSGSGSGTDFTLTISSLQPEDFATYYCQQYSTVPWTFGQGTKVEIKR
			0.6 fold	Y0239-2 (Fab, V domains shown, Clone from library YC-95 on pY0192; Expressed as Fab; The limits of the flanking pieces are my reading) VH: EVQLVESGGGLVQPGGSLRLSCAASGYTFTNYGMNWVRQAPGKGLEWVGWINTYTGEPTYAADFKRRFTFSLDTSKSTAYLQMNSLRAEDTAVYYCAKYPHYYKNDKSSHWYFDVWGQGTL VL: DIQLTQSPSSLSASVGDRVTITCRANEQLSNYLNWYQQKPGKAPKVLIYFTSSLHSGVPSRFSGSGSGTDFTLTISSLQPEDFATYYCQQYSTVPWTFGQGTKVEIKR
			8 fold	Y0313-2 (Fab, V domains shown, Combines the CDR H3 insertion of Y0239-19 with T28D/N31H; Prepared as Fab; also called CDR combination variant Y0313-2; Insert-Fab Y0313-2) VH: EVQLVESGGGLVQPGGSLRLSCAASGYDFTHYGMNWVRQAPGKGLEWVGWINTYTGEPTYAADFKRRFTFSLDTSKSTAYLQMNSLRAEDTAVYYCAKYPHYYVNERKSHWYFDVWGQGTL VL: DIQLTQSPSSLSASVGDRVTITCRANEQLSNYLNWYQQKPGKAPKVLIYFTSSLHSGVPSRFSGSGSGTDFTLTISSLQPEDFATYYCQQYSTVPWTFGQGTKVEIKR
			1.6 fold	Y0242-1 (Fab, V domains shown, Clone from library YC-90; Expressed as Fab) VH: EVQLVESGGGLVQPGGSLRLSCAASGYTFTNYGMNWVRQAPGKGLEWVGWINTWTGEPTYAADFKRRFTFSLDTSKSTAYLQMNSLRAEDTAVYYCAKYPHYYGSSHWYFDVWGQGTL VL: DIQLTQSPSSLSASVGDRVTITCRANEQLSNYLNWYQQKPGKAPKVLIYFTSSLHSGVPSRFSGSGSGTDFTLTISSLQPEDFATYYCQQYSTVPWTFGQGTKVEIKR
			5.8 fold	Y0240-1 (Fab, V domains shown, Clone from library YC-98 (G104 and S105 replaced by a random peptide) on pY0192; Expressed as Fab; The limits of the flanking pieces are my reading) VH: EVQLVESGGGLVQPGGSLRLSCAASGYTFTNYGMNWVRQAPGKGLEWVGWINTYTGEPTYAADFKRRFTFSLDTSKSTAYLQMNSLRAEDTAVYYCAKYPHYYLTDHKSHWYFDVWGQGTL VL: DIQLTQSPSSLSASVGDRVTITCRANEQLSNYLNWYQQKPGKAPKVLIYFTSSLHSGVPSRFSGSGSGTDFTLTISSLQPEDFATYYCQQYSTVPWTFGQGTKVEIKR

Second part, the binder before the results:

Binder	koff (VEGF(8-109) [1])	kon (VEGF(8-109) [1])	Kd (VEGF(8-109) [2])	Kd(wt)/Kd(mut) (VEGF(8-109) [3])
Y0241-6 (Fab, V domains shown, Clone from library YC-86 built on pY0192, expressed as Fab) VH: EVQLVESGGGLVQPGGSLRLSCAASGYDYTNYGMNWVRQAPGKGLEWVGWINTYTGEPTYAADFKRRFTFSLDTSKSTAYLQMNSLRAEDTAVYYCAKYPHYYGSSHWYFDVWGQGTL VL: DIQLTQSPSSLSASVGDRVTITCRANEQLSNYLNWYQQKPGKAPKVLIYFTSSLHSGVPSRFSGSGSGTDFTLTISSLQPEDFATYYCQQYSTVPWTFGQGTKVEIKR	0.000129 s⁻¹	47000 M⁻¹ s⁻¹	2.7 nM	1.1 fold
Y0239-8 (Fab, V domains shown, Clone from library YC-95 (G104 replaced by a random peptide) on pY0192; Expressed as Fab; The limits of the flanking pieces are my reading) VH: EVQLVESGGGLVQPGGSLRLSCAASGYTFTNYGMNWVRQAPGKGLEWVGWINTYTGEPTYAADFKRRFTFSLDTSKSTAYLQMNSLRAEDTAVYYCAKYPHYYLRDGRSSHWYFDVWGQGTL VL: DIQLTQSPSSLSASVGDRVTITCRANEQLSNYLNWYQQKPGKAPKVLIYFTSSLHSGVPSRFSGSGSGTDFTLTISSLQPEDFATYYCQQYSTVPWTFGQGTKVEIKR				5.8 fold
Y0239-19 (Fab, V domains shown, Expressed as Fab; also called insertion variant Y0239-19; VNERK motif variant) VH: EVQLVESGGGLVQPGGSLRLSCAASGYTFTNYGMNWVRQAPGKGLEWVGWINTYTGEPTYAADFKRRFTFSLDTSKSTAYLQMNSLRAEDTAVYYCAKYPHYYVNERKSHWYFDVWGQGTL VL: DIQLTQSPSSLSASVGDRVTITCRANEQLSNYLNWYQQKPGKAPKVLIYFTSSLHSGVPSRFSGSGSGTDFTLTISSLQPEDFATYYCQQYSTVPWTFGQGTKVEIKR				9.7 fold
Y0239-12 (Fab, V domains shown, Clone from library YC-98 on pY0192; Expressed as Fab; The limits of the flanking pieces are my reading) VH: EVQLVESGGGLVQPGGSLRLSCAASGYTFTNYGMNWVRQAPGKGLEWVGWINTYTGEPTYAADFKRRFTFSLDTSKSTAYLQMNSLRAEDTAVYYCAKYPHYYAHEKKSHWYFDVWGQGTL VL: DIQLTQSPSSLSASVGDRVTITCRANEQLSNYLNWYQQKPGKAPKVLIYFTSSLHSGVPSRFSGSGSGTDFTLTISSLQPEDFATYYCQQYSTVPWTFGQGTKVEIKR				4.8 fold
Y0261-6 (Fab, V domains shown, Clone from library YC-98 on pY0192; Expressed as Fab; The limits of the flanking pieces are my reading) VH: EVQLVESGGGLVQPGGSLRLSCAASGYTFTNYGMNWVRQAPGKGLEWVGWINTYTGEPTYAADFKRRFTFSLDTSKSTAYLQMNSLRAEDTAVYYCAKYPHYYLKDKKSHWYFDVWGQGTL VL: DIQLTQSPSSLSASVGDRVTITCRANEQLSNYLNWYQQKPGKAPKVLIYFTSSLHSGVPSRFSGSGSGTDFTLTISSLQPEDFATYYCQQYSTVPWTFGQGTKVEIKR				5 fold
